According to patent publication US20220098289A1 (CONSEJO SUPERIOR DE INVESTIGACIONES CIENT FICAS, published 2022):

Target: T1, human Aβ1-42 peptides (human, UniProt P05067 672-713)
T1 construct: domain: Aβ1-42; Synthetic peptide prepared to obtain minimal aggregation; also called Aβ peptides
Assay: recombinant proteins mixed in vitro for 24 hrs at 37° C., then Western blot
Description: Protein-protein binding assays. Nanomolar concentrations of recombinant human SFRP1 (RD cat: 5396-SF-025) and human Aβ1-42 peptides (Invitrogen, cat: 03-111, prepared to obtain minimal peptide aggregation) were mixed in protein Lobind tubes (Eppendorf) for 24 hrs at 37° C. NuPAGE LDS sample buffer (4×) was added to the tubes, boiled for 5 min and subjected to Western blot analysis. Microplate-based solid-phase protein-protein binding assays was performed by immobilizing in wells 200 ng/well of either human Aβ1-42 peptides, BSA, used as a […] control because previously described as an Aβ interactor; or heparin, a described SFRP1 binding partner. Immobilization was performed overnight at 4° C. The wells were then washed with TBS 3× and incubated with two different SFRP1 concentrations for 2 hrs at RT. In the converse experiment, BSA, heparin or SFRP1 were immobilized overnight at 4° C. and two different concentrations of Aβ1-42 were added for 2 hrs at RT. The wells were washed 6× in TBS and 2× sample buffer containing β-mercaptoethanol was added to the well. The content was recovered by scrapping, boiled for 5 min and analyzed by SDS-PAGE followed by WB using anti-Sfrp1 or anti-Aβ antibodies, respectively.

T1 sequence (P05067 672-713 limits assumed): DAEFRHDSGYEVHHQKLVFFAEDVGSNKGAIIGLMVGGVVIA

binding result: binds
B1: human recombinant SFRP1 (other, UniProt Q8N474 32-314, looked up)
chain: SEYDYVSFQSDIGPYQSGRFYTKPPQCVDIPADLRLCHNVGYKKMVLPNLLEHETMAEVKQQASSWVPLLNKNCHAGTQVFLCSLFAPVCLDRPIYPCRWLCEAVRDSCEPVMQFFGFYWPEMLKCDKFPEGDVCIAMTPPNATEASKPQGTTVCPPCDNELKSEAIIEHLCASEFALRMKIKEVKKENGDKKIVPKKKKPLKLGPIKKKDLKKLVLYLKNGADCPCHQLDNLSHHFLIMGRKVKSQYLLTAIHKWDKKNKEFKNFMKKMKNHECPTFQSVFK
notes: Bought recombinant protein; also called hSFRP1; recombinant hSFRP1
